In this experiment the target is CD28 (human, UniProt P10747 19-220). In words: cell-based or functional assay.
CD28, sequence (P10747 19-220): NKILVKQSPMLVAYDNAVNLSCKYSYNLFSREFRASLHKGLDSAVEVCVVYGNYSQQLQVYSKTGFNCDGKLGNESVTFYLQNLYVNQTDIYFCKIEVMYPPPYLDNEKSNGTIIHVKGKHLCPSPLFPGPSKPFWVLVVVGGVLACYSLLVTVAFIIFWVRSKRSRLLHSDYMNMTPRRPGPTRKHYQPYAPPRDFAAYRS

B1: murine B7 (ligand)
chain: VDEQLSKSVKDKVLLPCRYNSPHEDESEDRIYWQKHDKVVLSVIAGKLKVWPEYKNRTLYDNTTYSLIILGLVLSDRGTYSCVVQKKERGTYGVKHLALVKLSIKADFSTPNITESGNPSADTKRITCFASGGFPKPRFSWLENGRELPGINTTISQDPESELYTISSQLDFNTTRNHTIKCLIKYGDAHVSEDFTWEKPPEDPPDSKNTLVLFGAGFGAVITVVVIVVIIKCFCKHRSCFRRNEASRETNNSLTFGPEEALAEQTVFL
B1: the “fold enhancement of proliferation of PMA-treated human CD28+ T cells by fixed COS-mB7 cells” value stood at 29 fold.

B2: human B7 B cell activation antigen (ligand)
chain: VIHVTKEVKEVATLSCGHNVSVEELAQTRIYWQKEKKMVLTMMSGDMNIWPEYKNRTIFDITNNLSIVILALRPSDEGTYECVVLKYEKDAFKREHLAEVTLSVKADFPTPSISDFEIPTSNIRRIICSTSGGFPEPHLSWLENGEELNAINTTVSQDPETELYAVSSKLDFNMTTNHSFMCLIKYGHLRVNQTFNWNTTKQEHFPDNLLPSWAITLISVNGIFVICCLTYCFAPRCRERRRNERLRRESVRPV
B2: the “IL-2 secretion with CHO-B7 relative to anti-CD28 mAb, PMA-stimulated CD28+ T cells” value was about 45%; the “fold enhancement of proliferation of PMA-treated human CD28+ T cells by fixed COS-hB7 cells” value turned out to be 30 fold; the “fold increase in proliferation of PMA-treated human CD28+ T cells by fixed CHO-hB7 cells” value is 51 fold; the “proliferation by CHO-B7 relative to anti-CD28 mAb” value is about 28 % less.
